The supplement of paper PMC10065799, “High-throughput profiling of sequence recognition by tyrosine kinases and SH2 domains using bacterial peptide display” (eLife, 2023)

Assays:
AncSZ = assay: phosphorylation enrichment, bacterial display (enrichment ratio); higher = better substrate or ligand; peptides without Tyr show the background
EPHB1 = EPHB1 (UniProt P54762); assay: as above
EPHB2 = EPHB2 (UniProt P29323); assay: as above
FGFR1 = FGFR1 (UniProt P11362); assay: as above
FGFR3 = FGFR3 (UniProt P22607); assay: as above
Fer (mouse) = assay: as above
Fes = Fes (UniProt P07332); assay: as above
Fyn = Fyn (UniProt P06241); assay: as above
Hck = Hck (UniProt P08631); assay: as above
Jak2 = Jak2 (UniProt O60674); assay: as above
MERTK = MERTK (UniProt Q12866); assay: as above
c-Abl (mouse) = assay: as above
c-Src = assay: as above
Grb2 SH2 = Grb2 SH2 (UniProt P62993); assay: SH2 binding enrichment of the phosphorylated peptide, bacterial display (enrichment ratio); higher = better substrate or ligand; peptides without Tyr show the background
SHP2-C SH2 = assay: as above
c-Src SH2 = assay: as above
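Wherever SH2 binding enrichment of the phosphorylated peptide, bacterial display is given: peptide library displayed on the E. coli surface as eCPX fusions, selected cells deep-sequenced, score is each peptide's frequency after selection divided by its frequency in the input.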
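Wherever phosphorylation enrichment, bacterial display is given: 11-residue human phosphosite peptides and single-mutation variants displayed on the E. coli surface, counted by deep sequencing, each peptide's frequency after selection divided by its frequency in the unselected input library; frequency after pTyr selection over input frequency; kinase dosed for 20-30% of maximal phosphorylation in three min.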

Sequence of FGFR1 (P11362 whole entry, looked up): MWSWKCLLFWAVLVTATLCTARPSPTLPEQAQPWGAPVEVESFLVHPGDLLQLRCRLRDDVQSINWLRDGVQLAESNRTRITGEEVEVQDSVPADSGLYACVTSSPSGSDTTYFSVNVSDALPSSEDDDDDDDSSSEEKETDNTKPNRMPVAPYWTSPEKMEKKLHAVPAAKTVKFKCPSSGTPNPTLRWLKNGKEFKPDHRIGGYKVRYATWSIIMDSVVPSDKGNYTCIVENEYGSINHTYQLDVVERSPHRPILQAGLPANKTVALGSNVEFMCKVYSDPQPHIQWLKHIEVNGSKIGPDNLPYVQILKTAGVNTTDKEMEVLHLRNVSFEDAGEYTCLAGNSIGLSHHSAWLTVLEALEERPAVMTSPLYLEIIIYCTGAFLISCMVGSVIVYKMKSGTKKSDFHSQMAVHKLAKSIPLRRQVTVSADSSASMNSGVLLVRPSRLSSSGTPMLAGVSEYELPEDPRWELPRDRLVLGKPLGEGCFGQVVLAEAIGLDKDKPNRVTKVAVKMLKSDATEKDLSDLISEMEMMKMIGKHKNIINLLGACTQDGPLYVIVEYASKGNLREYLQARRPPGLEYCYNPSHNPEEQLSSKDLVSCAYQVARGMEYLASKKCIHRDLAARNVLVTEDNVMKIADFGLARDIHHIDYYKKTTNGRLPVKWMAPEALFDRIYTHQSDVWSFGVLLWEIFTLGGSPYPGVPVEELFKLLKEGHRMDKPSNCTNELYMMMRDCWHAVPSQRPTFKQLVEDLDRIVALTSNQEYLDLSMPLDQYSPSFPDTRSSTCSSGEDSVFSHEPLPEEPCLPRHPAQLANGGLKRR
Sequence of Grb2 SH2 (P62993 whole entry, looked up): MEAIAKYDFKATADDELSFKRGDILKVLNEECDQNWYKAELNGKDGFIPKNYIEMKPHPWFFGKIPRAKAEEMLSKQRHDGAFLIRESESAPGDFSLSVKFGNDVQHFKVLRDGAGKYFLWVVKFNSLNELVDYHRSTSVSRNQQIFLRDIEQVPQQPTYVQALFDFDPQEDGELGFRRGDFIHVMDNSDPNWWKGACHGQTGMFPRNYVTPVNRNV
Sequence of Hck (P08631 whole entry, looked up): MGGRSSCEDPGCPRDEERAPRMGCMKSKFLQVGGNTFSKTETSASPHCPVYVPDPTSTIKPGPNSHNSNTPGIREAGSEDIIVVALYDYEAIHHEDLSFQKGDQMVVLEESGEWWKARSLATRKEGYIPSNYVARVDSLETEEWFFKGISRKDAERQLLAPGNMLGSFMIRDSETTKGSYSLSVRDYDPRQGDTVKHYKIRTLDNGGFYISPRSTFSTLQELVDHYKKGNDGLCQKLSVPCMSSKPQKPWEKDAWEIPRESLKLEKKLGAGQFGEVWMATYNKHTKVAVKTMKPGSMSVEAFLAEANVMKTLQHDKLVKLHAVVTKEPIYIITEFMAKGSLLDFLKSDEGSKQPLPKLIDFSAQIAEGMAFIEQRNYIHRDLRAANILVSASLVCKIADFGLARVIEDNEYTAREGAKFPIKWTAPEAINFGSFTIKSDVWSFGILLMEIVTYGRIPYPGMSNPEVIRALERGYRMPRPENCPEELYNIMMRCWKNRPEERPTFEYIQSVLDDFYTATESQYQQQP
Sequence of MERTK (Q12866 whole entry, looked up): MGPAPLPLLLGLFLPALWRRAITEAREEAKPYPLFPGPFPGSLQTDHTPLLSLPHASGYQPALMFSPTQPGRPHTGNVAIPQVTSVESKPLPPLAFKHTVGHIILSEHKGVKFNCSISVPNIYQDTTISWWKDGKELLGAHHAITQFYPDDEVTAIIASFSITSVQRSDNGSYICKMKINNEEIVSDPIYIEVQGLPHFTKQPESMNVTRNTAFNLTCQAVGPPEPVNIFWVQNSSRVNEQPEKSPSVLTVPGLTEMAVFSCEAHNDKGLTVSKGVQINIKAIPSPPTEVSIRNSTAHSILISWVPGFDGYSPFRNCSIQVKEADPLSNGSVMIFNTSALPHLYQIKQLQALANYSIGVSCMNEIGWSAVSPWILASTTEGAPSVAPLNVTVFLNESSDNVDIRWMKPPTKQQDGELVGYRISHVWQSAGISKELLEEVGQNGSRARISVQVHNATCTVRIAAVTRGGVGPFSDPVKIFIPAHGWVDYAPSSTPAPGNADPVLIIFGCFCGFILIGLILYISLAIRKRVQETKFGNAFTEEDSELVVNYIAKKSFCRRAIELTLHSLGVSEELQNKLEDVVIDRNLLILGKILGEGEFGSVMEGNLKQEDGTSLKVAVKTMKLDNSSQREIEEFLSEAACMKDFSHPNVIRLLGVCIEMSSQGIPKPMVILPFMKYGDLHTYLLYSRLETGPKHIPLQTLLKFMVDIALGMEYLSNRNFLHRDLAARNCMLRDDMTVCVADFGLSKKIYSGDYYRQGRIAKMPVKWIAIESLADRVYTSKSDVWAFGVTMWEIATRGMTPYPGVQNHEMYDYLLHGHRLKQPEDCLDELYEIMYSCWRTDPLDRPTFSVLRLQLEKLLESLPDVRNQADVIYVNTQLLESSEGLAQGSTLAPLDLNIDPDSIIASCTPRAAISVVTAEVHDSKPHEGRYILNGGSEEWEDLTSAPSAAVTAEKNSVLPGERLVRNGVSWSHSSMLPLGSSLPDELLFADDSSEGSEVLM
Sequence of EPHB1 (P54762 whole entry, looked up): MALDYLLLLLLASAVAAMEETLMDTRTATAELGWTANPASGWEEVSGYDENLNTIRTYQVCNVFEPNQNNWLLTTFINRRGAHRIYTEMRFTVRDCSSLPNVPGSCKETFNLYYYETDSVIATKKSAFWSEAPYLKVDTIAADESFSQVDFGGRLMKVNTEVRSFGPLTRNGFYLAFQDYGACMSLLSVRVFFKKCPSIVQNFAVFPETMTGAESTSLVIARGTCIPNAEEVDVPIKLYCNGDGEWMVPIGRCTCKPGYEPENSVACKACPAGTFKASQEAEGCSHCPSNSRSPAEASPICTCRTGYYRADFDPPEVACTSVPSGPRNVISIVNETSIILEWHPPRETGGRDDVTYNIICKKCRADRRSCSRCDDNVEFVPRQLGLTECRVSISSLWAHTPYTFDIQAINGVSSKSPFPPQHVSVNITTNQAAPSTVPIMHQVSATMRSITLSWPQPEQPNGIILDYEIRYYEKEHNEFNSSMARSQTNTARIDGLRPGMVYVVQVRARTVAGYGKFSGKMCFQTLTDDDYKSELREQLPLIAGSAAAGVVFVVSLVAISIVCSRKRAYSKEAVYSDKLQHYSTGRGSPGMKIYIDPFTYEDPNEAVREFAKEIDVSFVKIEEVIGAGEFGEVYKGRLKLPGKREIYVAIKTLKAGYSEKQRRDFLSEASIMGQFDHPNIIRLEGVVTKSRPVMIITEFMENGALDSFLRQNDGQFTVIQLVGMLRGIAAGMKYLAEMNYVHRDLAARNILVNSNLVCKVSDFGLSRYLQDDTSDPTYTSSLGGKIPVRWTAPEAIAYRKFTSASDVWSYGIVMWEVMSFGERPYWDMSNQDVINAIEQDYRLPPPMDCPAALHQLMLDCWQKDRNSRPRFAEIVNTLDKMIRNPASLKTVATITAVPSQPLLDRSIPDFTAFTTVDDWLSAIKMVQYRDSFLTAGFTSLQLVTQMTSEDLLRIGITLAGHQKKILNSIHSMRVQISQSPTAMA
Sequence of Fes (P07332 whole entry, looked up): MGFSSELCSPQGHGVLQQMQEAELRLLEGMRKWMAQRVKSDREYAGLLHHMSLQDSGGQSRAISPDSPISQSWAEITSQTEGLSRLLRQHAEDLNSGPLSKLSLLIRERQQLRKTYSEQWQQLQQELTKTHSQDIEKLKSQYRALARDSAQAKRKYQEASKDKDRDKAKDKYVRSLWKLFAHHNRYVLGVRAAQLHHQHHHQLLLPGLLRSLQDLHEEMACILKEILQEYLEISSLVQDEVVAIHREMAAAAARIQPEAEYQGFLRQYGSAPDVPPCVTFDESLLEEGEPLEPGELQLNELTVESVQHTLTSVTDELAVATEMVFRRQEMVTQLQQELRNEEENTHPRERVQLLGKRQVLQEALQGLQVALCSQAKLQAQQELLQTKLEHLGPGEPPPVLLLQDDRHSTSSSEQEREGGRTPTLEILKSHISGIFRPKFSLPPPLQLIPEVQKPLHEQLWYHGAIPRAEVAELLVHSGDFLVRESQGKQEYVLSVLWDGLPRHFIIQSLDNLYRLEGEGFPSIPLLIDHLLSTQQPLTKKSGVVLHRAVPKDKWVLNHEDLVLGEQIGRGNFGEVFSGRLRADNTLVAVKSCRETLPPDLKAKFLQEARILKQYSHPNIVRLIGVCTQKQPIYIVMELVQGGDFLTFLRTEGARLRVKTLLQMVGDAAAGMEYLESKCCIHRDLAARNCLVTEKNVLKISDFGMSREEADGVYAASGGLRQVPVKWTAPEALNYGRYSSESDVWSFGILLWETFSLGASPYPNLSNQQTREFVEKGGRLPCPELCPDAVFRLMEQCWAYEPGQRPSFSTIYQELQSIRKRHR
Sequence of Fyn (P06241 whole entry, looked up): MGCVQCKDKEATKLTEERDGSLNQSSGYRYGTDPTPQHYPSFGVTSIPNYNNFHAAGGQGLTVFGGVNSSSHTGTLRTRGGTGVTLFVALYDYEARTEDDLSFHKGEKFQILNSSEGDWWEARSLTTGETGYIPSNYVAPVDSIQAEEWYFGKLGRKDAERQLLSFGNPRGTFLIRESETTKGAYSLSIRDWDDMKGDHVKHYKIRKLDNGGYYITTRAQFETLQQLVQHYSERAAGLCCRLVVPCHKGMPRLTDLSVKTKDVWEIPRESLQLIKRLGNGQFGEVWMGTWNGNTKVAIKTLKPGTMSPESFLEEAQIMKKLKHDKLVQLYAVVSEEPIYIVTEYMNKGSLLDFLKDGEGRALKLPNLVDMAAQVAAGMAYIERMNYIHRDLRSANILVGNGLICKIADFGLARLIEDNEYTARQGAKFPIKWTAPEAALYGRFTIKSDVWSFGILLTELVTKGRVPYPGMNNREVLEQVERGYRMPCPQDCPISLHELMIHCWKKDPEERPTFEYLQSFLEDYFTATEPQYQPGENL

Row | Sequence | phosphorylation enrichment (AncSZ) | phosphorylation enrichment (EPHB1) | phosphorylation enrichment (EPHB2) | phosphorylation enrichment (FGFR1) | phosphorylation enrichment (FGFR3) | phosphorylation enrichment (Fer (mouse)) | phosphorylation enrichment (Fes) | phosphorylation enrichment (Fyn) | phosphorylation enrichment (Hck) | phosphorylation enrichment (Jak2) | phosphorylation enrichment (MERTK) | phosphorylation enrichment (c-Abl (mouse)) | phosphorylation enrichment (c-Src) | SH2 binding enrichment (Grb2 SH2) | SH2 binding enrichment (SHP2-C SH2) | SH2 binding enrichment (c-Src SH2)
1 | QKFMAYPSQGG [HLCS_Y236_L237P] | 0.625 | 0.388 | 0.525 | 0.512 | 0.484 | 0.654 | 0.886 | 0.388 | 0.537 | 1.2 | 0.613 | 1.12 | 0.779 | 0.941 | 0.654 | 0.477
2 | QLDQHYLLVPE [DDX49_Y223_R222H] | 1.16 | 1.21 | 1.09 | 1.6 | 2.09 | 0.643 | 1.1 | 0.955 | 0.893 | 1.14 | 0.825 | 0.642 | 0.654 | 0.815 | 0.436 | 0.604
3 | QMEKICTQQIQ [CCNB1IP1_Y125_Y125C] | 1.36 | 0.707 | 0.647 | 1 | 0.948 | 0.537 | 1.64 | 0.486 | 0.409 | 1.24 | 0.461 | 0.986 | 0.573 | 0.834 | 0.558 | 0.486
4 | QMVDMYASSYM [AVPR2_Y124_G122D] | 1.22 | 0.558 | 0.571 | 0.579 | 0.815 | 0.631 | 1.43 | 0.876 | 1.58 | 0.905 | 0.842 | 0.891 | 1.29 | 0.742 | 0.602 | 1.33
5 | QNTADYYDLYG [PTPN11_Y62_G60A] | 2.62 | 12.4 | 11.9 | 15.3 | 14.1 | 0.762 | 1.02 | 4.14 | 3.94 | 2.14 | 1.68 | 0.722 | 4.18 | 1.25 | 0.739 | 0.7
6 | QNTGFYFDLFG [PTPN11_Y62_D61Y_YF] | 1.89 | 1.6 | 1.25 | 3.04 | 2.42 | 1.12 | 2.16 | 0.668 | 0.742 | 2.66 | 2.75 | 1.36 | 0.681 | 1.19 | 0.657 | 0.663
7 | QNVADYMRYLM [RPL5_Y207] | 1.49 | 1.98 | 1.16 | 1.07 | 0.893 | 0.736 | 1.96 | 0.723 | 0.736 | 0.994 | 0.523 | 0.682 | 0.684 | 1.12 | 1.02 | 0.628
8 | QPGTDYKIFLF [FN1_Y1970_YF] | 2.09 | 1.05 | 0.848 | 1.17 | 1.21 | 0.899 | 2.44 | 0.591 | 0.924 | 1.72 | 0.673 | 1.4 | 0.674 | 0.609 | 0.548 | 0.4
9 | QQLVAYFSKHT [SRC_Y232_A237T_YF] | 0.898 | 0.676 | 0.724 | 0.562 | 0.942 | 0.595 | 1.09 | 0.629 | 0.699 | 1.75 | 0.382 | 0.646 | 0.513 | 1.01 | 1.08 | 0.808
10 | QRDSSYYWEIE [RAF1_Y340] | 1.3 | 2.77 | 1.14 | 3.91 | 3.03 | 0.536 | 1.09 | 2.12 | 0.981 | 1.13 | 3.5 | 0.744 | 1.95 | 0.762 | 0.797 | 10.6
11 | QRMGTYGVRAA [ICAM2_Y260] | 1.26 | 0.685 | 0.657 | 0.754 | 0.702 | 0.852 | 1.14 | 2.06 | 3.44 | 0.983 | 0.618 | 0.637 | 1.58 | 1 | 0.881 | 0.724
12 | QRRYVYYYSYL [PTEN_Y176] | 1.88 | 1.85 | 1.83 | 6.01 | 4.17 | 0.987 | 1.32 | 3.65 | 3.63 | 5.95 | 9.64 | 1.09 | 4.21 | 1.07 | 3.88 | 1
13 | QSAGQYSSQGL [TNNI3K_Y788] | 0.703 | 0.95 | 0.414 | 0.387 | 0.542 | 0.622 | 1.15 | 0.459 | 0.855 | 0.636 | 0.584 | 0.777 | 0.418 | 0.944 | 0.924 | 0.369
14 | QSLEPYTKQQL [STAT3_Y640_V637L] | 0.537 | 0.497 | 0.371 | 0.452 | 0.603 | 0.424 | 0.745 | 0.353 | 0.459 | 0.48 | 0.304 | 0.498 | 0.309 | 0.679 | 0.558 | 0.388
15 | QSSALYEDRFL [ASS1_Y83_YF] | 1.19 | 4.13 | 1.86 | 0.781 | 1.01 | 10.1 | 1.53 | 1.48 | 6.48 | 1.23 | 1.24 | 1.08 | 2.02 | 0.835 | 0.471 | 0.65
16 | QTLEAYIRCNK [SPAST_Y604_W607C] | 1.12 | 0.906 | 0.738 | 0.559 | 1.1 | 0.452 | 1.36 | 0.438 | 0.951 | 1.44 | 0.624 | 0.887 | 0.372 | 0.76 | 0.626 | 0.474
17 | QTWKTYVRQQQ [SFI1_Y164] | 0.914 | 0.524 | 0.685 | 0.411 | 0.738 | 0.446 | 1.02 | 0.526 | 0.402 | 0.766 | 0.456 | 0.673 | 0.37 | 0.95 | 0.96 | 0.756
